Assay results taken from US20230019342A1.
One block for each binder: values may come before it. Square brackets hold non-standard residues; d marks the D form. Primed or numbered codes have the meaning given here. Ends that are not written are not given here. * marks the point of attachment. D‑Lys(pentyne) = D-Lys(pentyne) amide, alkyne-bearing D-lysine, C#CCCC(=O)NCCCC[C@@H](N*)C(N)=O; S3(3) = biotin-PEG2-acylated azidolysine clicked to D-Pra carrying 5-azido-pentanoic acid; Lys(N3) = [N-]=[N+]=NCCCC[C@H](N)C(=O)O; S3″ = biotin-PEG2 linker with azide; dPra = C#CC[C@@H](N)C(=O)O

Experiments:
[1] = target: Active Akt2 (with N terminal His6 tag) (human) (UniProt P31751); test: not stated there (summary of the ELISA and SPR results)
[2] = target: Active Akt2 (with N terminal His6 tag) (human) (UniProt P31751); test: single component ELISA, N-tL as surface-localized capture agent (FIG. 23A)
[3] = target: Active Akt2 (with N terminal His6 tag) (human) (UniProt P31751); test: SPR, Biacore T100, N-tL immobilised on SA chip, Akt2 protein as analyte, 1:1 model, 10° C.
[4] = target: Active Akt2 (with N terminal His6 tag) (human) (UniProt P31751); test: single-component ELISA (bi-L as detection agent, FIG. 23A)
[5] = target: Active Akt2 (with N terminal His6 tag) (human) (UniProt P31751); test: single-component immunoassay (ELISA, mono-L as detection agent, FIG. 23A)
[6] = target: T1, N-tL (not fully specified)
T1 chain 1: WKVKL
T1 chain 2: HNGYF
T1 chain 3: XYYRFG

[7] = target: Active Akt2 (with N terminal His6 tag) (human) (UniProt P31751); test: cell-based or functional assay
[8] = target: Inactive Akt2 (with N terminal His6 tag) (human) (UniProt P31751); test: ELISA, immobilised C-tL, active against inactive Akt2 (FIG. 23E)
[9] = target: Active Akt2 (with N terminal His6 tag) (human) (UniProt P31751); test: single component ELISA, C-tL as surface-localized capture agent (FIG. 23A)
[10] = target: Active Akt1 (with N terminal His6 tag) (human) (UniProt P31749); test: ELISA, C-tL immobilised on streptavidin plate, 25 nM His6 tagged full protein, anti His6 detection, triplicate
[11] = target: Active Akt3 (with N terminal His6 tag) (human) (UniProt Q9Y243); test: as above
Chain of Active Akt3 (with N terminal His6 tag) (human) (Q9Y243 other isoform, or with tags, fused parts or gaps): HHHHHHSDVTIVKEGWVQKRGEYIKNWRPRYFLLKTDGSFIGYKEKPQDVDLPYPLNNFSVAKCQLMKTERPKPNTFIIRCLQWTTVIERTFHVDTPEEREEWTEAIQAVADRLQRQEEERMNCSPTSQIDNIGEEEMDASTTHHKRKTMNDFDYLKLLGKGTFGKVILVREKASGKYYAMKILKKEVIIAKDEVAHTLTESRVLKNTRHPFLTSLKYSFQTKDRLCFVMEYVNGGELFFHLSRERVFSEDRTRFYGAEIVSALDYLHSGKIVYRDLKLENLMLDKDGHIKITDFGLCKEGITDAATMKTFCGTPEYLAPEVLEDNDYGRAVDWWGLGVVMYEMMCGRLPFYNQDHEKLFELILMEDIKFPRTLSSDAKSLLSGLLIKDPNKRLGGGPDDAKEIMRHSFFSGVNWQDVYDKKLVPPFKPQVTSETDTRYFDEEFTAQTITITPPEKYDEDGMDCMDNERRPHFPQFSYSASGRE

Chain of Active Akt1 (with N terminal His6 tag) (human) (P31749 other isoform, or with tags, fused parts or gaps): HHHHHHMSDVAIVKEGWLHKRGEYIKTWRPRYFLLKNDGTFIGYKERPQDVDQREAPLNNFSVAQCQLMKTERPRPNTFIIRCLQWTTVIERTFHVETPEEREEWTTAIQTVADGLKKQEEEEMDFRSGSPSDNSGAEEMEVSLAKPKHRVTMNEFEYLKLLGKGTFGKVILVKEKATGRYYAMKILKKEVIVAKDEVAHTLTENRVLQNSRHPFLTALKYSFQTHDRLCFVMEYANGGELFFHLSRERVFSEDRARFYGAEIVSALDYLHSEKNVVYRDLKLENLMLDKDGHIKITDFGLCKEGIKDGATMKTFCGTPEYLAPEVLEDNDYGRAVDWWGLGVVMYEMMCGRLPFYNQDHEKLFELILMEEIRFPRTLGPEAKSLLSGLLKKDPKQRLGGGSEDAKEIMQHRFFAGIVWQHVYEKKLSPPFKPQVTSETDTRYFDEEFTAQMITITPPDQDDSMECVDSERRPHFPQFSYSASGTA

B1: N-tL (peptide)
peptide 1: [dW][dK][dV][dK][dL]
peptide 2: [dH][dN]G[dY][dF]
peptide 3: Ac-[dPra][dY][dY][dR][dF]G-NH2
modifications: not fully specified (bridges)
affinity [1]: 20 nM | EC50 [2]: 19 nM | Kd [3]: 25 nM

B4: Active Akt2 (with N terminal His6 tag) (protein)
chain: HHHHHHMNEVSVIKEGWLHKRGEYIKTWRPRYFLLKSDGSFIGYKERPEAPDQTLPPLNNFSVAECQLMKTERPRPNTFVIRCLQWTTVIERTFHVDSPDEREEWMRAIQMVANSLKQRAPGEDPMDYKCGSPSDSSTTEEMEVAVSKARAKVTMNDFDYLKLLGKGTFGKVILVREKATGRYYAMKILRKEVIIAKDEVAHTVTESRVLQNTRHPFLTALKYAFQTHDRLCFVMEYANGGELFFHLSRERVFTEERARFYGAEIVSALEYLHSRDVVYRDIKLENLMLDKDGHIKITDFGLCKEGISDGATMKTFCGTPEYLAPEVLEDNDYGRAVDWWGLGVVMYEMMCGRLPFYNQDHERLFELILMEEIRFPRTLSPEAKSLLAGLLKKDPKQRLGGGPSDAKEVMEHRFFLSINWQDVVQKKLLPPFKPQVTSEVDTRYFDDEFTAQSITITPPDRYDSLGLLELDQRTHFPQFSYSASIRE
Akt2 kinase activity: phosphorylation of the GSK-3α/β substrate, Western blot [6]: The N-tL was found to activate Akt2

B5: C-tL (peptide)
peptide 1: Ac-[Lys(N3)][dH][dD]GG[dF]-NH2
peptide 2: {S3″}-[dW][dK][dV][dK]-{D‑Lys(pentyne)-NH2}
peptide 3: [dH][dN]G[dY][dF][dPra]
modifications: not fully specified (bridges); also: branched three-arm conjugate, triazole at chain A 1 to a chain's C-terminus, triazole to a chain's N/C-terminus via S3
Akt2 kinase activity: phosphorylation of the GSK-3α/β substrate, Western blot, EC50 [7]: 4000 nM | selectivity ratio (p-Akt2 over Akt2) (fold (ratio, reference p-Akt2)) [8]: 5 | EC50 [9]: 125 nM | selectivity ratio (Akt2 over Akt1) (fold (ratio, reference full-length Akt2)) [10]: 5 | selectivity ratio (Akt2 over Akt3) (fold (ratio, reference full-length Akt2)) [11]: 10

Now from value to binder:

affinity [4]: 1 µM
B2: bi-L (peptide)
peptide 1: {S3(3)}-[dW][dK][dV][dK][dL]-NH2
peptide 2: [dH][dN]G[dY][dF][dPra]
modifications: triazole (positions not given here); also: branched two-arm conjugate, triazole to a chain's N/C-terminus via S3

affinity [5]: 3 µM
B3: mono-L (peptide)
peptide: [dPra][dW][dK][dV][dK][dL]-NH2
modifications: not fully specified (residue 1, N-terminus); printed as (D-Pra)-wkvkl; also: D-Pra side chain clicked (triazole) to azide of S1 (azidolysine-PEG2-biotin), biotin label
